Our source for the Kd, koff and kon values is US20260098092A1 (CHULALONGKORN UNIVERSITY, published 2026).

Where a chain is given by its changes, count along the chain named.

The chains are these.
B1: Modified Seq11 (modified zCUSB0136.8 antibody) (antibody, V domains shown)
VH: QVQLQESGPGLVKPSETLSLTCTVSGFSLTTYDIIWIRQSPGKGLEWLGVIWTGGDTTYNSAFMSRLTISKDTSKNQISLKMSSLTAADTAVYYCARDWAYWGQGTLVTVSS
VL: DIVLTQSPDSLAVSLGERATISCRASESVDNYGNSFIQWYQQKPGQPPKLLIYFASYLQSGVPDRFSGSGSGTDFTLTISSVQAEDVATYYCHQNNEDPFTFGGGTKLEIK
B2: Modified Seq16 (modified zCUSB0136.8 antibody) (antibody, V domains shown)
VH: B1 VH
VL: B1 VL
B3: Modified Seq13 (modified zCUSB0136.8 antibody) (antibody, V domains shown)
VH: B1 VH
VL: B1 VL
B4: Modified Seq17 (modified zCUSB0136.8 antibody) (antibody, V domains shown)
VH: B1 VH with T31V
VL: B1 VL
B5: Modified Seq22 (modified zCUSB0136.8 antibody) (antibody, V domains shown)
VH: B1 VH
VL: B1 VL with Y32W, Y57N
B6: Modified Seq2 (modified zCUSB0136.8 antibody) (antibody, V domains shown)
VH: B1 VH with T31V, A100I
VL: B1 VL
B7: Modified Seq6 (modified zCUSB0136.8 antibody) (antibody, V domains shown)
VH: B1 VH with A100I
VL: B1 VL
B8: Modified Seq24 (modified zCUSB0136.8 antibody) (antibody, V domains shown)
VH: B1 VH with T31V
VL: B1 VL with Y57Q
B9: Modified Seq3 (modified zCUSB0136.8 antibody) (antibody, V domains shown)
VH: B1 VH with A100I
VL: B1 VL with Y32W
B10: Modified Seq10 (modified zCUSB0136.8 antibody) (antibody, V domains shown)
VH: B1 VH with T58W, A100M
VL: B1 VL with Y32W, Y57H
B11: Modified Seq21 (modified zCUSB0136.8 antibody) (antibody, V domains shown)
VH: B1 VH
VL: B1 VL with Y32W, Y57N
B12: Modified Seq25 (modified zCUSB0136.8 antibody) (antibody, V domains shown)
VH: B1 VH
VL: B1 VL with Y57H
B13: Modified Seq8 (modified zCUSB0136.8 antibody) (antibody, V domains shown)
VH: B1 VH with T58W, A100I
VL: B1 VL
B14: Modified Seq9 (modified zCUSB0136.8 antibody) (antibody, V domains shown)
VH: B1 VH with T58N
VL: B1 VL
B15: Modified Seq18 (modified zCUSB0136.8 antibody) (antibody, V domains shown)
VH: B1 VH
VL: B1 VL with Y32W, Y57Q
B16: Modified Seq23 (modified zCUSB0136.8 antibody) (antibody, V domains shown)
VH: B1 VH with T31V, T58N
VL: B1 VL with Y32W
B17: Modified Seq1 (modified zCUSB0136.8 antibody) (antibody, V domains shown)
VH: B1 VH with T58W
VL: B1 VL with Y32W
B18: Modified Seq5 (modified zCUSB0136.8 antibody) (antibody, V domains shown)
VH: B1 VH with T31V, A100M
VL: B1 VL
B19: Modified Seq4 (modified zCUSB0136.8 antibody) (antibody, V domains shown)
VH: B1 VH with T31V
VL: B1 VL
B20: Modified Seq14 (modified zCUSB0136.8 antibody) (antibody, V domains shown)
VH: B1 VH with A100I
VL: B1 VL with Y32W, Y57N
B21: Modified Seq12 (modified zCUSB0136.8 antibody) (antibody, V domains shown)
VH: B1 VH with T31V, A100I
VL: B1 VL with Y32W, Y57H
B22: Modified Seq20 (modified zCUSB0136.8 antibody) (antibody, V domains shown)
VH: B1 VH with T31V, A100I
VL: B1 VL with Y57H
B23: Modified Seq15 (modified zCUSB0136.8 antibody) (antibody, V domains shown)
VH: B1 VH with T31V
VL: B1 VL with Y32W, Y57N
B24: Modified Seq7 (modified zCUSB0136.8 antibody) (antibody, V domains shown)
VH: B1 VH with A100M
VL: B1 VL
B25: Modified Seq19 (modified zCUSB0136.8 antibody) (antibody, V domains shown)
VH: B1 VH
VL: B1 VL with Y32W, Y57N
B26: zCUSB0136.8-1 (antibody, V domains shown)
VH: B1 VH with T58W
VL: B1 VL with Y32W
notes: also called CUSB0136-BMVH.3a with CUSB0136-BMVL.2a
B27: zCUSB0136.8-4 (antibody, V domains shown)
VH: B1 VH with T31V, A100M
VL: B1 VL
notes: also called CUSB0136-BMVH.3d with CUSB0136-BMVL.2b
B28: zCUSB0136.8-2 (antibody, V domains shown)
VH: B1 VH with T31V, A100I
VL: B1 VL
notes: also called CUSB0136-BMVH.3b with CUSB0136-BMVL.2b
B29: zCUSB0136.8-3 (antibody, V domains shown)
VH: B1 VH with T31V
VL: B1 VL
notes: also called CUSB0136-BMVH.3c with CUSB0136-BMVL.2b

T1 sequence (Q15116 25-167 limits assumed): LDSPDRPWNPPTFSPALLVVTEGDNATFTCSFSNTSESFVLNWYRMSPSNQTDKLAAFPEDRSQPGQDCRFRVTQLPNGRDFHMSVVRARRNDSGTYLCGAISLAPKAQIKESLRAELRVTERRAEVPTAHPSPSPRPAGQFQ

The first assay addresses T1, recombinant human PD-1 His-tag protein (R&D Systems) (human, UniProt Q15116 25-167).
T1 construct: Bought reagent; Used for the ELISA (coated) and for SPR (analyte); also called PD-1 protein; human PD-1 protein; not shown: His-tag
Description: binding kinetics (method not described at the table; presumably SPR as in Example 8).
In general, Kd refers to the equilibrium constant for the complex coming apart. One may read the koff as a measure of how fast the partners let go of each other. One may read the kon as the rate constant with which the complex forms. As for B1, the Kd is 0.0206 nM, the koff came out at 7.57e-05 s⁻¹ and the kon turned out to be 3.67e+06 M⁻¹ s⁻¹.

Regarding B2, the Kd is 0.0266 nM, the koff was found to be 9.31e-05 s⁻¹ and the kon was 3.5e+06 M⁻¹ s⁻¹.

On to B3, for which the Kd is 0.0243 nM, the koff stood at 8.47e-05 s⁻¹ and the kon stood at 3.49e+06 M⁻¹ s⁻¹.

Regarding B4, the Kd came out at 0.0289 nM, the koff was 7.39e-05 s⁻¹ and the kon was determined as 2.56e+06 M⁻¹ s⁻¹.

Consider B5, for which the Kd was 0.057 nM, the koff came to 0.000134 s⁻¹ and the kon was found to be 2.36e+06 M⁻¹ s⁻¹.

Turning to B6, the Kd was 0.00571 nM, the koff worked out at 2.53e-05 s⁻¹ and the kon was 4.44e+06 M⁻¹ s⁻¹.

For B7, the Kd stood at 0.0136 nM, the koff turned out to be 5.45e-05 s⁻¹ and the kon came out at 4e+06 M⁻¹ s⁻¹.

For the molecule B8, the Kd is 0.0618 nM, the koff was 0.000112 s⁻¹ and the on-rate (kon) was 1.81e+06 M⁻¹ s⁻¹.

With B9, the Kd worked out at 0.00931 nM, the koff turned out to be 5.28e-05 s⁻¹ and the kon stood at 5.67e+06 M⁻¹ s⁻¹.

As to B10, the Kd was determined as 0.0174 nM, the koff turned out to be 6.74e-05 s⁻¹ and the kon amounted to 3.87e+06 M⁻¹ s⁻¹.

Take B11: the Kd came out at 0.0412 nM, the koff was determined as 0.000104 s⁻¹ and the kon was determined as 2.52e+06 M⁻¹ s⁻¹.

In the case of B12, the Kd came to 0.0664 nM, the koff was 0.000145 s⁻¹ and the kon was 2.18e+06 M⁻¹ s⁻¹.

B13: the Kd was determined as 0.0147 nM, the koff was determined as 6.09e-05 s⁻¹ and the kon was 4.13e+06 M⁻¹ s⁻¹.

As for B14, the Kd was 0.0158 nM, the koff is 5.98e-05 s⁻¹ and the kon stood at 3.78e+06 M⁻¹ s⁻¹.

With B15, the Kd worked out at 0.0307 nM, the koff came to 7.82e-05 s⁻¹ and the kon was 2.54e+06 M⁻¹ s⁻¹.

Regarding B16, the Kd was determined as 0.0582 nM, the koff was found to be 0.000288 s⁻¹ and the kon came out at 4.96e+06 M⁻¹ s⁻¹.

Regarding B17, the Kd came to 0.00539 nM, the koff was 2.81e-05 s⁻¹ and the kon amounted to 5.21e+06 M⁻¹ s⁻¹.

Regarding B18, the Kd was found to be 0.0108 nM, the koff was found to be 4.36e-05 s⁻¹ and the kon turned out to be 4.06e+06 M⁻¹ s⁻¹.

Consider B19, for which the Kd was found to be 0.00944 nM, the koff was found to be 3.92e-05 s⁻¹ and the kon stood at 4.15e+06 M⁻¹ s⁻¹.

As for B20, the Kd stood at 0.0244 nM, the koff was 6.5e-05 s⁻¹ and the kon was found to be 2.67e+06 M⁻¹ s⁻¹.

As to B21, the Kd was 0.0225 nM, the koff stood at 6.81e-05 s⁻¹ and the kon was determined as 3.03e+06 M⁻¹ s⁻¹.

As to B22, the Kd turned out to be 0.0319 nM, the koff stood at 8.7e-05 s⁻¹ and the kon turned out to be 2.73e+06 M⁻¹ s⁻¹.

B23: the Kd stood at 0.0246 nM, the koff turned out to be 6.3e-05 s⁻¹ and the kon was 2.56e+06 M⁻¹ s⁻¹.

Turning to B24, the Kd came to 0.0142 nM, the koff was 5.48e-05 s⁻¹ and the kon is 3.84e+06 M⁻¹ s⁻¹.

For the molecule B25, the Kd was 0.0315 nM, the koff came to 7.97e-05 s⁻¹ and the kon is 2.53e+06 M⁻¹ s⁻¹.

A further assay has as its target T1, recombinant human PD-1 His-tag protein …. Kind of assay: SPR, Biacore T200, as in Example 8 (antibody on Protein G chip, PD-1 His-tag injected). The procedure: The Biacore T200 instrument, equipped with a Protein G sensor chip (GE Healthcare), was used to determine the binding kinetics between chimeric anti-PD-1 antibodies and PD-1 protein. Each purified chimeric anti-PD-1 antibody (1 μg/mL) was injected into the chip with a flow rate of 30 μL/min for 60 sec. […] The HBS-EP+buffer (GE Healthcare) was used as a buffer blank and diluent. The association constant (kₒₙ), dissociation constant (koff), and equilibrium constant (KD) values were calculated using Biacore T200 evaluation software (version 3.1) with a 1:1 Langmuir binding model curve fitting.
On the technique in general: Surface plasmon resonance follows binding to a sensor surface in real time, without labels.
Regarding B26, the Kd worked out at 0.0237 nM, the koff amounted to 0.000142 s⁻¹ and the kon was determined as 6e+06 M⁻¹ s⁻¹.

Take B27: the Kd was 0.0159 nM, the koff was 7.02e-05 s⁻¹ and the kon came out at 4.42e+06 M⁻¹ s⁻¹.

On to B28, for which the Kd turned out to be 0.0155 nM, the koff was determined as 7.27e-05 s⁻¹ and the kon worked out at 4.68e+06 M⁻¹ s⁻¹.

B29: the Kd worked out at 0.0208 nM, the koff was 9.31e-05 s⁻¹ and the kon stood at 4.48e+06 M⁻¹ s⁻¹.
